Consider five molecules from patent US20220064250A1 (AKSTON BIOSCIENCES, published 2022).

For test [1], the target named is T1, human insulin receptor on human IM-9 cells (human, UniProt P06213 28-1382).
T1 construct: whole, on cells; Endogenous receptor on IM-9 cells; assay run at 4 C; also called IR
Description: IM-9 cells, competition with biotinylated RHI, flow cytometry, 4 C. The protocol:
(§1) 40 μL of an IM-9 cell suspension (8×10^6 cells/mL) was then added to each well by multichannel pipette, mixed again gently and incubated on ice for 30 min to allow competitive binding on the insulin receptor on IM-9 cells. Cells were then washed twice with 275 μL of ice-cold FACS wash buffer (HBSS/2 mM EDTA/0.1% Na-azide+0.5% horse serum) by centrifuging the V-bottom plate at 3000 rpm for 3 min and aspirating the supernatant. Cells were then resuspended in 40 μL of FACS staining medium containing 1:100 diluted Streptavidin-PE (Life Technologies) for 20 min on ice. Cells were then washed once with 275 μL of ice-cold FACS buffer and finally fixed with 3% paraformaldehyde for 10 min at room temp. Cells were then washed once with 275 μL of ice-cold FACS buffer and resuspended in 250 μl of FACS buffer for analysis.
The V-bottom plates containing cells were then analyzed on a Guava 8-HT flow cytometer (Millipore). Biotinylated-RHI binding to insulin receptor was quantitated by the median fluorescence intensity (MFI) of the cells on the FACS FL-2 channel for each concentration of the test compound. […] The % inhibition by test compounds of biotinylated-RHI binding on IM-9 cells was plotted against log concentrations of the test compound, and the resulting IC50 values were calculated using GraphPad Prism (GraphPad Software, La Jolla, Calif.) for the test compounds. […]
Background: In flow cytometry, cells or beads pass a laser one at a time.

The target in test [2] is T1, human insulin receptor on human IM-9 …. The test can be described thus: IM-9 cells, competition with biotinylated RHI, flow cytometry, 4 C (Table 3, same data as Table 7). Here is the method: as §1
The V-bottom plates containing cells were then analyzed on a Guava 8-HT flow cytometer (Millipore). Biotinylated-RHI binding to insulin receptor was quantitated by the median fluorescence intensity (MFI) of the cells on the FACS FL-2 channel for each concentration of the test compound. Control wells were labeled only with biotinylated-RHI and were used to calculate the percent (%) inhibition resulting from each test compound concentration. The % inhibition by test compounds of biotinylated-RHI binding on IM-9 cells was plotted against log concentrations of the test compound, and the resulting IC50 values were calculated using GraphPad Prism (GraphPad Software, La Jolla, Calif.) for the test compounds. Lower IC50 values of the test compound therefore indicate greater levels of biotinylated-RHI inhibition at lower concentrations indicating stronger binding of the insulin-Fc fusion protein to the insulin receptor. A control compound, such as unlabeled recombinant human insulin (RHI) was also used as an internal standard to generate an RHI IC50 against which a given compound IC50 could be ratioed (IC50(compound)/IC50(RHI)). […]

The target is the same in test [3]. The test can be described thus: IM-9 cells, competition with biotinylated RHI, flow cytometry, 4 C. The protocol:
(§2) Cultures of IM-9 cells were centrifuged at 250×g (˜1000 rpm) for 10 min to pellet the cells. Cells were washed once with HBSS or PBS buffer, resuspended in cold FACS staining medium (HBSS/2 mM EDTA/0.1% Na-azide+4% horse serum) to a concentration of 8×10^6 cells/mL and kept on ice or 4° C. until test solutions were made. The insulin-Fc protein was diluted in FACS buffer in 1:3 serial dilutions as 2× concentrations in 1.2 mL tubes (approx. 60 μL volume of each dilution), and the solutions were kept cold on ice until ready for pipetting.
(§3) Biotinylated-RHI was diluted in FACS staining medium to a concentration of 1.25 μg/mL. 40 μL of the serially diluted test compound and 8 μL of 1.25 μg/mL Biotin-RHI were added into each well of a V bottom microtiter plate, mixed by slow vortexing, and placed on ice. […]
(§4) The V-bottom plates containing cells were then analyzed on a Guava 8-HT flow cytometer (Millipore). Biotinylated-RHI binding to insulin receptor was quantitated by the median fluorescence intensity (MFI) of the cells on the FACS FL-2 channel for each concentration of the test compound. […] The % inhibition by test compounds of biotinylated-RHI binding on IM-9 cells was plotted against log concentrations of the test compound, and the resulting IC50 values were calculated using GraphPad Prism (GraphPad Software, La Jolla, Calif.) for the test compounds.
This is another data set of the same source.

Test [4] has the same target. The test can be described thus: IM-9 cells, competition with biotinylated RHI, flow cytometry, 4 C (Table 5, same data as Table 9). The protocol:
as §2, §3, §4

Residue numbers refer to the chain shown, from its start.

T1 sequence (P06213 28-1382): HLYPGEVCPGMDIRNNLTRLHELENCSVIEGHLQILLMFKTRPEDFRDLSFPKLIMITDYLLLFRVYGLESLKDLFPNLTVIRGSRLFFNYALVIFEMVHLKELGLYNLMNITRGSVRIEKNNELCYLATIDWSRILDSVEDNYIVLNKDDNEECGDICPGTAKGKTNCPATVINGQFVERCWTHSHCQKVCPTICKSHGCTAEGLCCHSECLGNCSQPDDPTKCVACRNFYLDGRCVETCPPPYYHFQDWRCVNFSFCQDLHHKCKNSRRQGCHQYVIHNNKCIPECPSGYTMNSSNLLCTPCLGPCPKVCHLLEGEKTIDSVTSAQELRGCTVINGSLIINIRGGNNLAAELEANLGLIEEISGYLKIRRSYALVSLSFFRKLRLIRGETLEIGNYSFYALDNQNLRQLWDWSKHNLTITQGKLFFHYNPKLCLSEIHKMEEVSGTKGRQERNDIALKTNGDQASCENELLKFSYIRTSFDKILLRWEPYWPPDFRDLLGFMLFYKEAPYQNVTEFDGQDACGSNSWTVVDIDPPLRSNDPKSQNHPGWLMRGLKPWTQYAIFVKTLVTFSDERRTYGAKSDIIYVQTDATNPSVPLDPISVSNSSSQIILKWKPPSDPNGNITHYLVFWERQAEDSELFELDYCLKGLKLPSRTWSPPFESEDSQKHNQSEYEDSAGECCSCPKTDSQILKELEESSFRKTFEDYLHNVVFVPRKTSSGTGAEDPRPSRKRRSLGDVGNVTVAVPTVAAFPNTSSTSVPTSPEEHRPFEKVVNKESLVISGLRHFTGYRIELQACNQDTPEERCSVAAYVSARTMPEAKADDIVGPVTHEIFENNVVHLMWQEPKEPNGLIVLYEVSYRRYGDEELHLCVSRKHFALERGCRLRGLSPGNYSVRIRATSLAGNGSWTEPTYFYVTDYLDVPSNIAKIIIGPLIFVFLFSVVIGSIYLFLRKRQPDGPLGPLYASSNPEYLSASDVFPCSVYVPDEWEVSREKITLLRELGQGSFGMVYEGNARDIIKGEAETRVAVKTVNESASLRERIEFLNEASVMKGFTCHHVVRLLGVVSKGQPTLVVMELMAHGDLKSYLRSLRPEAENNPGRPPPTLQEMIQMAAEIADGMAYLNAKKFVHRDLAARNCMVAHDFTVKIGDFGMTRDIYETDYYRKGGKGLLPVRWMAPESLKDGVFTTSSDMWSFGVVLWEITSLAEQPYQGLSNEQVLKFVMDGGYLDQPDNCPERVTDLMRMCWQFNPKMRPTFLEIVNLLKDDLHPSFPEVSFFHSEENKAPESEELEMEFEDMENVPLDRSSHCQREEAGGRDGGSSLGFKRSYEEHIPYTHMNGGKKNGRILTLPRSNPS

B1: insulin-Fc fusion protein of SEQ ID NO: 33 (insulin polypeptide SEQ ID NO: 16, linker SEQ ID NO: 25, canine IgGA Fc fragment SEQ ID NO: 28) (Fc fusion)
chain: FVNQHLCGSDLVEALALVCGERGFFYTDPTGGGPRRGIVEQCCHSICSLYQLENYCNGGGGAGGGGRCTDTPPCPVPEPLGGPSVLIFPPKPKDILRITRTPEVTCVVLDLGREDPEVQISWFVDGKEVHTAKTQSREQQFNGTYRVVSVLPIEHQDWLTGKEFKCRVNHIDLPSPIERTISKARGRAHKPSVYVLPPSPKELSSSDTVSITCLIKDFYPPDIDVEWQSNGQQEPERKHRMTPPQLDEDGSYFLYSKLSVDKSRWQQGDPFTCAVMHETLQNHYTDLSLSHSPG
notes: Disulfide-linked homodimer made in HEK293 cells; the preparation was only 24% homodimer (highly aggregated)
For B1, the IC50 in test [1] and in test [2] was 2730 nM each time.

B2: insulin-Fc fusion protein of SEQ ID NO: 45 (insulin polypeptide SEQ ID NO: 16, linker SEQ ID NO: 25, canine IgGD Fc fragment SEQ ID NO: 31) (Fc fusion)
chain: FVNQHLCGSDLVEALALVCGERGFFYTDPTGGGPRRGIVEQCCHSICSLYQLENYCNGGGGAGGGGCISPCPVPESLGGPSVFIFPPKPKDILRITRTPEITCVVLDLGREDPEVQISWFVDGKEVHTAKTQPREQQFNSTYRVVSVLPIEHQDWLTGKEFKCRVNHIGLPSPIERTISKARGQAHQPSVYVLPPSPKELSSSDTVTLTCLIKDFFPPEIDVEWQSNGQPEPESKYHTTAPQLDEDGSYFLYSKLSVDKSRWQQGDTFTCAVMHEALQNHYTDLSLSHSPG
notes: Homodimer made in HEK293 cells; the preparation was highly aggregated (12% homodimer)
The molecule B2 yielded an IC50 in test [2] of more than 5000 nM.

B3: insulin-Fc fusion protein of SEQ ID NO: 51 (insulin polypeptide SEQ ID NO: 16, linker SEQ ID NO: 25, canine IgGB Fc fragment with des hinge D and cNg-K, i.e. … (Fc fusion)
chain: FVNQHLCGSDLVEALALVCGERGFFYTDPTGGGPRRGIVEQCCHSICSLYQLENYCNGGGGAGGGGCPKCPAPEMLGGPSVFIFPPKPKDTLLIARTPEVTCVVVDLDPEDPEVQISWFVDGKQMQTAKTQPREEQFKGTYRVVSVLPIGHQDWLKGKQFTCKVNNKALPSPIERTISKARGQAHQPSVYVLPPSREELSKNTVSLTCLIKDFFPPDIDVEWQSNGQQEPESKYRTTPPQLDEDGSYFLYSKLSVDKSRWQRGDTFICAVMHEALHNHYTQESLSHSPG
notes: Non-glycosylated homodimer made in HEK293 cells; also called cNg-NB138-K
On to B3, for which the IC50 in test [3] and in test [4] was 147 nM throughout.

B4: insulin-Fc fusion protein of SEQ ID NO: 41 (insulin polypeptide SEQ ID NO: 16, linker SEQ ID NO: 25, canine IgGB Fc fragment SEQ ID NO: 29) (Fc fusion)
chain: FVNQHLCGSDLVEALALVCGERGFFYTDPTGGGPRRGIVEQCCHSICSLYQLENYCNGGGGAGGGGDCPKCPAPEMLGGPSVFIFPPKPKDTLLIARTPEVTCVVVDLDPEDPEVQISWFVDGKQMQTAKTQPREEQFNGTYRVVSVLPIGHQDWLKGKQFTCKVNNKALPSPIERTISKARGQAHQPSVYVLPPSREELSKNTVSLTCLIKDFFPPDIDVEWQSNGQQEPESKYRTTPPQLDEDGSYFLYSKLSVDKSRWQRGDTFICAVMHEALHNHYTQESLSHSPG
notes: Disulfide-linked homodimer made in HEK293 cells; 93% homodimer; native cNg glycosylation site kept
As for B4, the IC50 in test [1] and in test [2] was 28 nM in each case.

B5: insulin-Fc fusion protein of SEQ ID NO: 47 (insulin polypeptide SEQ ID NO: 16, linker SEQ ID NO: 25, canine IgGB Fc fragment with cNg-S) (Fc fusion)
chain: B4 chain with N139S
notes: Non-glycosylated homodimer made in HEK293 cells; also called cNg-NB139-S
In the case of B5, the IC50 in test [3] and in test [4] was 145 nM each time.

Usually IC50 stands for the concentration that inhibits the measured activity by half.
